# According to patent publication US20220185900A1:
# B1: H4H7086N (antibody, human IgG4, V domains shown)
# VH: QVQLVESGGGVVQPGRSLRLSCVVSGFTFSNYGMHWVRQGPGRGLEWLALIWYDGSDKYYAESVRGRFTISRDNSKNTVYLQMNSLRAEDTAMYYCTRDRIFDYWGQGTLVTVSS
# VL: AIQMTQSPSSLSASVGDRVTITCRASQDIRNDLGWYQHNPGKAPNLLIYAASTLQIGVPSRFRGSGSGTDFTLTISSLQPEDFATYYCLQDFDYPLSFGGGTKVEIR
# Target: human RET on cells (MCF7/SRE-Luc; HEK293/hGFRα3/hRET/SRE-Luc; HEK293/hGFRα1/hRET/SRE-Luc) (human), P07949
# Assay: cell-based or functional assay
binder,measurement,value
B1,"Internalization (% H4H8087P), HEK293/hGFRa1/hRET/SRE-Luc cells, 37 C",59%
